The numbers were not newly measured in paper PMC9880166, which cites them from elsewhere.

One may read the Kd as the concentration at which binding is half-saturated.

Read-outs that look alike come from different tables or passages of the source.

In series [1] the target is prolactin receptor (Homo sapiens) (UniProt P16471).
Series [2] shares this target. The series is described as follows: SPR.

Chain of UniProt P16471 (P16471 25-234): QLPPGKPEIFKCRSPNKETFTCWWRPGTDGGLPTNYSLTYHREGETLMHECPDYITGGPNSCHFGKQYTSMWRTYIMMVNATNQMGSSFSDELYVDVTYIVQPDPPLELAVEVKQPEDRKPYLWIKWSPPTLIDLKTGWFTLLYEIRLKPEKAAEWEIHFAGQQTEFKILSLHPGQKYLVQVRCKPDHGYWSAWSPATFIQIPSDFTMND
Chain of prolactin (P01236 29-227): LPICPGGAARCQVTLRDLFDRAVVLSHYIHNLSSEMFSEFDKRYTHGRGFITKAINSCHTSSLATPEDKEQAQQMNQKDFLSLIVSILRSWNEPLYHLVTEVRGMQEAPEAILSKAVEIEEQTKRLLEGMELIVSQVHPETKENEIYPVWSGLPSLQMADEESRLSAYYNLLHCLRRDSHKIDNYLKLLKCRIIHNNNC

Regarding prolactin (from UniProt P01236), the figures for the dissociation constant (Kd) in series [1] and in series [2] were 29.9 nM and 23 nM, respectively.
